Source: patent publication US20240327489A1

Tests used:
[1] = molecular target: putative Btnl2 receptor on activated CD4+ T cells; experiment: flow cytometry, Fc-fusion staining of activated mouse CD4+ T cells at 72 hours
[2] = molecular target: putative Btnl2 receptor on activated CD4+ T cells; experiment: cell-based or functional assay

Substance “mouse Btnl2-Fc (from UniProt O70355 24-454) (Fc fusion)” has a decrease in binding with CD28 co-stimulation (α-CD3/α-CD28 against α-CD3 alone) [1] of 50% and a cytokine production of activated CD4+ T cells after 72 hours of culture [2] of over 40%.
